Molecular target: Myc-mGlu5a-Rluc8 (UniProt P31424-2 21-1171)
Experiment: FRET or BRET

BRET ratio in the spine before TAT-Homer1a (% of mean BRET in the shaft): 364%
B1: YFP-Homer3 (natural protein, UniProt Q9Z2X5 1-358, looked up)
chain: MSTAREQPIFSTRAHVFQIDPATKRNWIPAGKHALTVSYFYDATRNVYRIISIGGAKAIINSTVTPNMTFTKTSQKFGQWADSRANTVYGLGFGSEQQLTQFAEKFQEVKEAARLAREKSQDGGELTSTALAMASHQVPPSPLVSTNGPEEKLFRSQSADAPGPTERERLKKMLSEGSVGEVQWEAEFFALQDSNQRLAGALREANAAATQWRQQLEVQRAEAEHLRQRVAELEAQVAAEPVRAGEKEATSQSVEQLEARVQTKDQEIQTLKNQSTGPREAPDTAEREETQQQVQDLETRNAELEQQLRAMESNLEEARAERERARAEVGRAAQLLDVRLFELSELREGLARLAEAAP

— publication PMC3410417 (The Journal of Cell Biology, 2012)
